According to publication doi:10.1101/2025.02.26.640323, “Aggregation-Dependent Epitope Sequence and Modification Fingerprints of Anti-Aβ Antibodies” (bioRxiv, 2025):
Entries after “also recorded” stand apart in the source; their conditions may differ.

Key:
[1] = Isoelectric point on CIEF immunoassay; type: physicochemical; conditions: Peggy Sue
Description: (§1) Automated capillary isoelectric focusing immunoassays were performed with a Peggy-Sue system (ProteinSimple,San Jose, California, USA), essentially as previously described and [53].
(§2) In brief, synthetic Aβ peptide variants were separated by isoelectric focusing in microcapillaries followed by photochemical immobilization to the inner capillary walls and probing with the primary antibodies for 120 min. After 2 washes, the horseradish peroxidase conjugated secondary antibodies were loaded and incubated for 60 min. After two washing steps, a luminol/peroxide mix was loaded, and chemiluminescent signals were recorded. The data was analyzed with the Compass for SW software. The following secondary antibodies were used: Anti-human IgG Secondary HRP antibody (Protein Simple, catalog number 043–491), Goat-Anti-Mouse-HRP Secondary Antibody ProteinSimple, catalog number 040–655) and Peroxidase-conjugated Affini Pure Donkey Anti-Human IgG (H+L) (1:100 dilution) (Jackson ImmunoResearch Laboratories Inc., West Grove, PA, code number 709–035-149).

[2] = system: amyloid precursor protein (APP770) residues 649–722; test: Peptide microarray epitope pre-screening (overlapping 15-mers); type: binding, human; conditions: 0.5–1 μg/mL antibody; for Array: epitope identified in this study on microarrays: Aβ residue numbers, 15-mer peptides overlapping by 14AAs on cellulose conjugates, chemiluminescence
Description: Information regarding binding epitopes and /or immunogens for most of the tested Aβ-Abs has been published and is summarized in Table 1. However, the binding epitope information was derived from varying methodologies. To provide an initial side-by-side comparison we pre-screened all of the listed Aβ-Abs in array format using copies of peptide libraries and standard antibody concentrations of 0.5–1 μg/mL (Figure 1a). The library comprised the amyloid precursor protein (APP770) residues 649–722, corresponding to the canonical Aβ1–42 amino acid sequence with additional 23 amino terminal and 9 carboxy terminal residues. […] For optimal signal to noise ratios and ideal selectivity profiles on the microarrays, the Aβ-Ab concentrations were adjusted for 3D6, 82E1, 11H3, 80C2 and 7H3D6 (Figure 1 – figure- supplement 1) and (Appendix 1–7). […] Specifically, Donanemabbs, 2–48 and Aβ-pE3 were raised against AβpE3-x (Table 1) and were expected to show preference for Aβ peptides starting with a pE(3).
Figure 1. Microarray workflow and Aβ-Ab epitope pre-screening. (a) Schematic of the microarray workflow. The library comprised the amyloid precursor protein (APP) residues 649–722 (APP770 numbering), corresponding to Aβ residues −23 to 51, as a library of 15-mer peptides overlapping by 14AAs, copied in dozens, and probed for Aβ-Abs binding followed by analysis in MARTin. (b) The epitope screening binding data are summarized as a heatmap. Blue and red shades indicate the relative binding strength of the related arrayed peptides to the left and cognate Aβ-Ab on top. The blue – red scale is visualizing the normalized binding intensity for each antibody individually. The applied antibody concentrations ranged between 0.5–1 μg/mL.
The μSPOT assay was performed as previously described. […] Peptide arrays were synthesized using MultiPep RSi robot (CEM GmbH, Kamp-Lintford, Germany) on cellulose discs containing Fmoc-β-Ala linkers. Natural amino acid building blocks were purchased from IRIS (IRIS Biotech GmbH, Marktredwitz, Germany). Special building blocks employed in this study such as isomers, stereoisomers, phosphorylation and pyroglutamination […] modifications are listed here: Fmoc-L-Ser(PO(OBzl)OH)-OH (Iris – FAA1423), L-Pyroglutamic acid pentachlorophenyl ester (Novabiochem - 8.54203), Fmoc-L-Asp-OtBu (Iris – FAA1356), Fmoc-D-Asp-OtBu (Carbosolutions – CC05095) and Fmoc-D-Asp(tBu)-OH (Iris – FAA1309). Synthesis was carried out by deprotecting the Fmoc-group using 20% piperidine in dimethylformamide (DMF). Peptide chains were elongated using a coupling solution consisting of amino acids (0.5M) with oxyma (1M) and DIC (1M) in DMF (1:1:1). Coupling steps were carried out 3 times (30min), followed by capping (4% acetic anhydride in DMF). Discs were transferred into 96 deep-well plates for the work-up.

AβpE3-x = test: PTM-Aβ microarray, pE3; type: binding, human; conditions: Donanemabbs 0,0012μg/mL, 2–48, Aβ-pE3, IC16 […], vs Aβ3-x with non-cyclized Glu
From the text: Specific PTMs might be associated with different stages of AD progression and severity, offering potential biomarkers for diagnosis and prognosis. Targeting PTMs represents a potential therapeutic strategy to prevent Aβ aggregation and neurotoxicity, thereby slowing disease progression. […] Therefore, a selected group of PTM-carrying Aβ peptides (PTM-Aβ) were incorporated into the Aβ chip to explore the potential binding preference of selected Aβ-Abs, under optimized concentrations (Figure 3). The antibodies were tested with both PTM-Aβ and the corresponding unmodified variants to provide a head-to-head comparison. This screening was performed in the presence of Aβ phosphorylated at positions Ser(8) or Ser(26), N-terminal pE at position 3, racemization/isomerization of Asp at position 1, and unmodified N-terminal variants. The dataset is divided into sections (Figure 3 a–f) for enhanced visualization, where each antibody was screened simultaneously against all peptides to locate their epitope preferences. […] A set of antibodies without reported PTM preference was applied here as controls (refer to Table 1), namely 11H3, 101–1-1, IC16, 82E1 and 3D6.
Figure 3. […] Blue and red shades indicate the binding strength over the related arrayed […] modified peptide shown on top and cognate anti-Aβ antibody to the left. […]

Aβ = conditions: cited from earlier work
CAA fibrils = conditions: ref [38],[47]; cited from earlier work
From the text: Despite extensive structural, genetic, and pre-clinical investigations, clinical trials of Aβ antibodies have yielded ambiguous outcomes. Aβ antibody binding to cerebral amyloid angiopathy (CAA) has been hypothesized to correlate with the frequency of amyloid-related imaging abnormalities with edema (ARIA-E) observed in patients treated with Aβ-based immunotherapies.

[3] = system: endogenous soluble Aβ in pooled human CSF; test: IP-MS from pooled human CSF; type: binding; conditions: 250 μL pooled human CSF, CHCA matrix; two replicate measurements each from two independent immunoprecipitations
[4] = system: Aβ1–42 monomer, oligomer and fibril preparations; AβpE3–40; test: Bistris-SDS gradient PAGE/Western blot; type: binding; conditions: 4–12% Bistris SDS-PAGE/Western blot
Description: No SPR-487B) (StressMarq biosciences, Victoria, BC, Canada). The samples for electrophoresis were prepared (starting from stock solutions) with final concentrations of 0.1 μg/μL) in LDS sample buffer (247.5 mM Tris-HCl, pH 8.5, 2% (w/v) lithium dodecyl sulfate (LDS), 10% (v/v) glycerol, 0.5 mM EDTA, 0.22 mM Brilliant Blue G250, 0.175 mM Phenol Red) and denatured by heating at 70°C for 10 min. […] The prechilled transfer buffer contained 25 mM Tris, 192 mM glycine, 20% (v/v) methanol and 0.0375 % Tween-20. After blotting, the membrane was washed for 10 min at room temperature in Tris-buffered saline (TBS) followed by blocking for 30 min with 5% powdered milk in TBS containing 0.1% Tween-20 (TBS-T). The blots were then incubated with primary antibodies in 5% milk in TBS-T over night at 4°C and washed 3 × for 10 min with TBS-T at room temperature. […] After 1 h incubation with the secondary antibodies, the blots were washed 3 × for 10 min with TBS-T and incubated for 5 min with ECL-Prime Western Blotting Detection Reagent (Cytiva Amersham, Little Chalfont, England). Images were recorded on a Vilber-Loumart Fusion SL blot imager. […] That way, the 4G8 reprobing signals were essentially added on top of the initial signals and background artifacts.

synthetic Aβ peptides = test: Peptide Bicine-Tris SDS-PAGE/Western blot; type: binding; conditions: PVDF, 50 ng per peptide, 0.5 μg/mL antibody
[5] = system: synthetic Aβ peptide variants; test: Capillary isoelectric focusing (CIEF) immunoassay; type: binding; conditions: Peggy Sue, chemiluminescence
Description: as §1, §2

[6] = system: Aβ vascular and parenchymal deposits in AD brain sections; test: Immunohistochemistry on AD brain tissue with antibody pre-adsorption; design: species or system human
Description: Immunohistochemistry was performed on 4-μm paraffin sections. In brief, brain sections were deparaffinized in Roticlear (Carl Roth, Karlsruhe, Germany) and rehydrated in a descending series of ethanol. Activity of endogenous peroxidases was blocked by incubation in 0.3% H2O2 in PBS for 30 min. […] Antibodies and peptides were incubated on a rotator for 3 h at room temperature and reaction tubes were centrifuged at 13000 rpm for 5 min at the end of the incubation period. Control conditions included antibodies in 0.01 M PBS including 10% FCS without synthetic peptides. Adjacent paraffin-embedded sections from a human AD case were incubated overnight with the supernatants and sections were washed with 0.01 M PBS including 0.1 % Tergitol. For detection, biotinylated anti-human antibodies (6 μg/ml, Jackson ImmunoResearch, West Grove, Pennsylvania, USA #109-065-003) were used and staining was visualized with the ABC method with a Vectastain kit (Vector Laboratories, Newark, California, USA), diaminobenzidine as a chromogen and counterstaining with hematoxylin.

[7] = system: Alzheimer's disease patients; conditions: cited from earlier work
[8] = Lecanemabbs #BXC-SIM0032, 0.06 μg with 0.25 μg peptide

## Aβ1–40: synthetic Aβ peptide, AnaSpec
[1]
  pI: 5.31

## Donanemab: Eli Lilly's Donanemab, approved in the US as Kisunla [reference compound]
[2]
  Array: epitope identified in this study on microarrays: 3–10
[2]; unmodified Aβ-related 15-mers, generic pre-screening conditions
  binding in epitope pre-screening: produced detectable signals in this pre-screening with unmodified Aβ-related peptides
AβpE3-x
  selectivity for / binding to AβpE3-x: cyclized AβpE3-x as the dominant binding determinant
Aβ; ref [47],[64],[57],[14]
  reported selectivity for modified Aβ: selective for AβpE3; also recorded: known to recognize Aβ starting with cyclized pE3
CAA fibrils
  binding to CAA fibrils: binds to CAA fibrils in proportion to the amount of pyroglutamate-modified Aβ they present

## Aβ−3–40: N-terminally elongated Aβ, provided by H.-J. Knölker, Technische Universität Dresden
[1]
  pI: 6.04

## Aβ1–42: synthetic Aβ peptide, AnaSpec; monomers, oligomers, fibrils from StressMarq
[1]
  pI: approx. 5.3

B1: Lecanemabbs: humanized monoclonal, biosimilar of Lecanemab, Proteogenix (#PX-TA1746) and BioXCell (#BXC-SIM0032) (antibody, chains of the INN, looked up, V domains shown)
VH: EVQLVESGGGLVQPGGSLRLSCSASGFTFSSFGMHWVRQAPGKGLEWVAYISSGSSTIYYGDTVKGRFTISRDNAKNSLFLQMSSLRAEDTAVYYCAREGGYYYGRSYYTMDYWGQGTTVTVSS
VL: DVVMTQSPLSLPVTPGAPASISCRSSQSIVHSNGNTYLEWYLQKPGQSPKLLIYKVSNRFSGVPDRFSGSGSGTDFTLRISRVEAEDVGIYYCFQGSHVPPTFGPGTKLEIK
modifications: biosimilar
[2]
  Array: epitope identified in this study on microarrays: 3–7
[3]
  immunoprecipitation of endogenous Aβ from CSF: immunoprecipitated authentic biological Aβ peptides from pooled human CSF; also recorded: Aβ1–40, Aβ1–38, Aβ42, Aβ1–37 and Aβ1–39 were detected, albeit with relatively low signal intensities
[4]
  preference for Aβ1–42 aggregation state: a certain, but not absolute preference for aggregated forms of Aβ1–42 over monomeric and low-n oligomeric forms
Synthetic Aβ peptides
  Aβ variants detected on Bicine-Tris SDS-PAGE/Western blot: recognized Aβ1–40, Aβ1–42, Aβ3–40 (pI approximately 5.97) Aβ-3–40 (aka. APP669–711),phosphorylated pSer8-Aβ1–40
[5]
  Aβ variants detected on CIEF-immunoassay: recognized Aβ1–40, Aβ1–42, Aβ3–40 (pI approximately 5.97) Aβ-3–40 (aka. APP669–711),phosphorylated pSer8-Aβ1–40; also recorded: detected Aβ1–40 (pI 5.31), Aβ2–40 (pI 5.98), Aβ3–40 (pI 5.97), Aβ−3–40 (pI 6.04), Aβ1–42 (pI approx. 5.3) and pSer8Aβ1–40 (amide) (pI 5.13–5.14)
[6]; Aducanumabbs 0.5 μg with 5 μg fibrils, Lecanemabbs (PX-TA1746) 0.06 μg with 0.25 μg, human AD brain, antibody for IHC: Aducanumabbs 0.5 μg/μl (so in the source)
  IHC immunoreactivity after pre-adsorption with Aβ1–42 fibrils: efficiently blocked
[6]; Aducanumabbs 0.5 μg with 10 μg monomers, Lecanemabbs (PX-TA1746) 0.06 μg with 0.25 μg, human AD brain
  IHC immunoreactivity after pre-adsorption with Aβ1–42 monomers: efficiently blocked
[6]; [8]
  IHC blocking by Aβ1–16 (BioXCell lot): did not
  IHC blocking by Aβ1–34 (BioXCell lot): did not
  IHC blocking by Aβ1–38 (BioXCell lot): did not
  IHC blocking by Aβ1–42 monomers (BioXCell lot): completely blocked Lecanemabbs binding
[6]; Lecanemabbs (PX-TA1746) 0.06 μg with 0.25 μg oligomers, human AD brain
  IHC immunoreactivity after pre-adsorption with Aβ1–42 oligomers: efficiently blocked

B2: Lecanemab: designed at Uppsala University, humanized by BioArctic, later licensed to Eisai (antibody, chains of the INN, looked up, V domains shown)
VH: B1 VH
VL: B1 VL
[2]
  Array: epitope identified in this study on microarrays: 3–7
[7]; cross-study comparison, ref [38]
  ARIA-E frequency: 13%
[7]; ref [45],[46]
  clinical outcome, Clarity AD: positive results in the Clarity AD trial
Aβ; ref [38],[40],[41],[83]
  binding to aggregated versus monomeric Aβ: strong preference for Aβ protofibrils and to bind Aβ monomers only weakly; also recorded: preferably bind specific aggregated forms of Aβ over monomeric forms
Aβ; ref [46]
  preferential binding to fibrillar Aβ: preferential binding to fibrillar Aβ aggregates
